Test results from article PMC3377065 (EMBO Molecular Medicine, 2011).
“And” between values parts separate entries of the source, which are not always exact repeats. Equal entries are not always repeated.

B1: human CMG2 C315A, V5-tagged (receptor)
chain: not shown
B2: human CMG2 C39A, V5-tagged (receptor)
chain: not shown
B3: human CMG2 C230A–C315A double mutant, V5-tagged (receptor)
chain: not shown
B4: human CMG2 C255A, V5-tagged (receptor)
chain: not shown
B5: human CMG2 C279A, V5-tagged (receptor)
chain: not shown
B6: human CMG2 C218A, V5-tagged (receptor)
chain: not shown
B7: human CMG2 C230A, V5-tagged (receptor)
chain: not shown

Molecular target: the molecule itself
Test: non-reducing SDS-PAGE and Western blot

Protein	stoichiometry N
B1	3 and 4
B2	2
B3	2
B4	3 and 4
B5	3 and 4
B6	2
B7	3 and 4
